PMC8739950, “The MocR/GabR Ectoine and Hydroxyectoine Catabolism Regulator EnuR: Inducer and DNA Binding” (Frontiers in Microbiology, 2021)
Like-named read-outs stand apart in the source and are kept apart here. Each block holds one compound with its values, some of them ahead of it.

Tests used:
EnuR [1] = target: T1, EnuR (Ruegeria pomeroyi, UniProt Q5LUA6); assay: microscale thermophoresis; format: binding
T1 construct: gene gntR; full-length EnuR with C-terminal Strep-tag-II, PLP-containing
T1 sequence (Q5LUA6 1-464): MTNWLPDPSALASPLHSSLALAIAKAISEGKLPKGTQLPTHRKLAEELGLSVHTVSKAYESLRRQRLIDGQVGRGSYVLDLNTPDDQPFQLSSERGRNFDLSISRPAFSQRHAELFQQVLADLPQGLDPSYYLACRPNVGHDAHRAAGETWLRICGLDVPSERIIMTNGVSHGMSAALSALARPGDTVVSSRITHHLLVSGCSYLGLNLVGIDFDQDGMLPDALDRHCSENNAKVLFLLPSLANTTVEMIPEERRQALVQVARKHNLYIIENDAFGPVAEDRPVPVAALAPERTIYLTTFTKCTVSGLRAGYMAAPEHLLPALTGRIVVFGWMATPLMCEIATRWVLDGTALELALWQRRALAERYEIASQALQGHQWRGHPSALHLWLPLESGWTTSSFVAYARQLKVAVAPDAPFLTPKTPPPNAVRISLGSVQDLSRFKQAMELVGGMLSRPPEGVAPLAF

EnuR [2] = target: T2, EnuR (Ruegeria pomeroyi, UniProt Q5LUA6); assay: microscale thermophoresis; format: binding; remark: listed apart in the source
T2 construct: gene gntR; full-length EnuR with C-terminal Strep-tag-II, PLP-containing

[3] = target: C-terminal aminotransferase domain (ATD) of wild-type EnuR from Ruegeria pomeroyi DSS-3, Strep-tag II fusion (Ruegeria pomeroyi DSS-3); assay: SEC; HiLoad 16/600 Superdex 200 pg column; masses estimated against marker proteins (thyroglobulin, alcohol dehydrogenase, bovine albumin, carbonic anhydrase); quaternary assembly of the Strep-Tactin purified proteins
[4] = target: C-terminal aminotransferase domain of the EnuR* (Lys302His) mutant from Ruegeria pomeroyi DSS-3, Strep-tag II fusion (Ruegeria pomeroyi DSS-3); assay: as above
[5] = target: Ectoine nutrient utilization regulator (EnuR) from Ruegeria pomeroyi DSS-3, full-length wild type, EnuR-Strep-tag II (Ruegeria pomeroyi DSS-3); assay: as above
[6] = target: EnuR* (Lys302His) mutant of full-length EnuR from Ruegeria pomeroyi DSS-3, EnuR*-Strep-tag II (Ruegeria pomeroyi DSS-3); assay: as above
[7] = tested on: EnuR (C-terminal Strep-tag II fusion, PLP-bound) (Ruegeria pomeroyi DSS-3); assay: MST; conditions: PLP-containing EnuR, 200 nM; MST: 10 mM Tris-HCl pH 7.5, 150 mM NaCl, 0.07% Tween20, 21 C; 200 nM NT-647-labeled EnuR titrated with DNA

Compound: C-terminal aminotransferase domain of the EnuR* (Lys302His) mutant from Ruegeria pomeroyi DSS-3, Strep-tag II fusion (domain or fragment)
stoichiometry N [4]: 2

Compound: Ectoine nutrient utilization regulator (EnuR) from Ruegeria pomeroyi DSS-3, full-length wild type, EnuR-Strep-tag II (natural protein)
stoichiometry N [5]: 2

Compound: EnuR* (Lys302His) mutant of full-length EnuR from Ruegeria pomeroyi DSS-3, EnuR*-Strep-tag II (natural protein)
stoichiometry N [6]: 2

Compound: TAACATTGTCGCGCGACAATAAAAAAATTGACATGCAGTACAATTCCC (double strand) [MST BS WT 48 bp promoter/operator fragment]
Kd [7]: 1.9 µM

More lines, now with the values ahead:

Kd (EnuR [1]): 0.43 ± 0.2 µM
Compound: CC(=O)N[C@H](C(=O)O)[C@@H](O)CN [hydroxy-α-ADABA]

Kd (EnuR [2]): 2.55 ± 0.5 µM
Compound: CC(=O)N[C@@H](CCN)C(=O)O [α-ADABA]

stoichiometry N [3]: 2
Compound: C-terminal aminotransferase domain (ATD) of wild-type EnuR from Ruegeria pomeroyi DSS-3, Strep-tag II fusion (domain or fragment)
